# Patent US20170241986A1, “METHODS FOR IDENTIFYING COMPOUNDS THAT ALTER THE ACTIVITY OF IRHOM POLYPEPTIDES AND USE THEREOF” (The Jackson Laboratory, priority 2014, published 2017)
# Experiments:
# AREG [1] = assay: ELISA of AREG in conditioned medium of transfected 293T cells (in vitro cleavage assay); type: cell-based, human; conditions: 293T cells, co-expression with AREG, absence of MM
# Text: To test whether Rhbdf2^cub, with its short N-terminal domain, could induce secretion of AREG independently of metalloprotease activity, we performed in vitro cleavage assays in the presence or absence of marimastat (MM), a potent broad-spectrum metalloprotease inhibitor that can block both ADAM17- and ADAM10-dependent shedding of substrates. Because of the significant homology between the mouse and human RHBDF2 genes we transfected 293T cells with human AREG either alone or with the human wildtype (HuWt) or human Cub (HuCub) RHBDF2 genes (FIG. 5A), and measured AREG levels in conditioned medium. In the absence of MM, we observed no difference in AREG levels between AREG-expressing and AREG/HuCub co-expressing cells, whereas co-expression of HuWt and AREG reduced AREG levels by ˜60% (FIG. 5B).
# Human AREG, HB-EGF and EGF ELISA: Transient transfections were performed in 293T cells seeded in 24-well plates. Using lipofectamine LTX with Plus reagent 16.5 fmol of HuWt or HuCub was co-transfected with 25 ng of AREG or 50 ng of HB-EGF or 200 ng of EGF. The total amount of transfected DNA was made up to equal amount per well with pCMV6-AC-HA vector. After 24 h, DMSO or 10 μM MM in 1 ml of fresh medium replaced the old medium. After 24 h, 100 μl of supernatant was either undiluted (HB-EGF and EGF) or diluted five-fold (AREG) and subjected to ELISA as per the manufacturer's instructions (DY262, DY259, and DY236).
# iRhom2 [2] = assay: Cyclohexamide chase with flow cytometry of Flag-tagged iRhom2 protein in COS7 cells; type: cell-based; conditions: 150 μg/ml cyclohexamide chase, within one hour
# Method: (§1) Flow cytometry—293T and COS7 cells plated in 6 well plates were transiently transfected with 600 ng of HuWt or HuCub or HuWt p.I186T cDNAs using Lipofectamine™ LTX reagent. After 40 h, cells were incubated in 150 μg/ml of cyclohexamide for 0, 0.5, 1, 2 and 4 h. Following that, cells were fixed in 150 μls of freshly prepared cold 4% PFA at RT for 40 min. Cells were washed once with 2 ml PBST and resuspended in 150 μls of PBST for 15 min at RT in the dark. After another wash, cells were resuspended in 125 μls of PBST containing phycoerythrin-labeled anti-DDK primary antibody (1:50) on ice for 30 min. After a final wash, cells were resuspended in FACS buffer and subjected to flow cytometry analysis (BD FACSCalibur).
# Statistical analysis—GraphPad Prism v4 (GraphPad Software, San Diego, Calif.) was used to generate Kaplan-Meier survival curves and calculate protein half-life (One phase exponential decay equation). One-way ANOVA and t-tests determined statistical differences. P value less than 0.05 was considered statistically significant.
# iRhom2 [3] = assay: Flow cytometry of protein expression of Flag-tagged constructs in 293T and COS7 cells; type: cell-based, human; conditions: 48 h post transfection
# Method: as §1, with “After 40 h, cells were incubated in 150 μg/ml of cyclohexamide for 0, 0.5, 1, 2 and 4 h.” left out
# AREG [4] = assay: Co-immunoprecipitation of iRhom2-AREG complex; type: binding, human; conditions: COS7 cell lysates, anti-Flag immunoprecipitation
# Method: Immunoprecipitation: 293T and COS7 cell transfections were carried according to the manufacturer's instructions (Life technologies). Cells plated in 6 well plates were treated with 400 μls of Cell Lysis Buffer (Cell Signaling, Danvers, Mass.) containing complete mini protease inhibitors (Roche Applied Science, Indianapolis, Ind.), incubated on ice for 10 min and centrifuged at 14,000 g for 10 min in a cold room. Cell supernatant was incubated overnight with 20 μls of magnetic beads conjugated with Anti-DDK antibody (Origene) in a cold room on a rocking platform. Following overnight incubation, beads/slurry was washed with three times with TBS-T, and protein was collected using 2×SDS-PAGE loading buffer.
molecule,measurement,setting,value
"HuWt: full-length wildtype human RHBDF2 cDNA (iRhom2) in a C-terminal Flag-tagged expression vector (protein, left off: small tags and cut ends, full-length wildtype human RHBDF2 cDNA (iRhom2) in a C-terminal Flag-tagged expression vector) MASADKNGGSVSSVSSSRLQSRKPPNLSITIPPPEKETQAPGEQDSMLPEGFQNRRLKKSQPRTWAAHTTACPPSFLPKRKNPAYLKSVSLQEPRSRWQESSEKRPGFRRQASLSQSIRKGAAQWFGVSGDWEGQRQQWQRRSLHHCSMRYGRLKASCQRDLELPSQEAPSFQGTESPKPCKMPKIVDPLARGRAFRHPEEMDRPHAPHPPLTPGVLSLTSFTSVRSGYSHLPRRKRMSVAHMSLQAAAALLKGRSVLDATGQRCRVVKRSFAFPSFLEEDVVDGADTFDSSFFSKEEMSSMPDDVFESPPLSASYFRGIPHSASPVSPDGVQIPLKEYGRAPVPGPRRGKRIASKVKHFAFDRKKRHYGLGVVGNWLNRSYRRSISSTVQRQLESFDSHRPYFTYWLTFVHVIITLLVICTYGIAPVGFAQHVTTQLVLRNKGVYESVKYIQQENFWVGPSSIDLIHLGAKFSPCIRKDGQIEQLVLRERDLERDSGCCVQNDHSGCIQTQRKDCSETLATFVKWQDDTGPPMDKSDLGQKRTSGAVCHQDPRTCEEPASSGAHIWPDDITKWPICTEQARSNHTGFLHMDCEIKGRPCCIGTKGSCEITTREYCEFMHGYFHEEATLCSQVHCLDKVCGLLPFLNPEVPDQFYRLWLSLFLHAGVVHCLVSVVFQMTILRDLEKLAGWHRIAIIFILSGITGNLASAIFLPYRAEVGPAGSQFGLLACLFVELFQSWPLLERPWKAFLNLSAIVLFLFICGLLPWIDNIAHIFGFLSGLLLAFAFLPYITFGTSDKYRKRALILVSLLAFAGLFAALVLWLYIYPINWPWIEHLTCFPFTSRFCEKYELDQVLH",reduction of AREG levels in conditioned medium,AREG [1],~60%
same,reduction in immunoreactivity compared with HuCub or p.I186T,iRhom2 [2],approximately 50%
same,protein expression level compared to HuCub and p.I186T,iRhom2 [3],significantly lower
same,physical complex with AREG,AREG [4],forms physical complexes with AREG
